We go through 1 substance from patent US20140057847A1.

The target of this assay is rat growth hormone releasing hormone receptor (rat) (UniProt Q02644). The experiment in a line: radioligand competition binding of radioiodinated JV-1-42 to membrane fractions of ischemic rat heart.
UniProt Q02644, sequence (Q02644 23-464): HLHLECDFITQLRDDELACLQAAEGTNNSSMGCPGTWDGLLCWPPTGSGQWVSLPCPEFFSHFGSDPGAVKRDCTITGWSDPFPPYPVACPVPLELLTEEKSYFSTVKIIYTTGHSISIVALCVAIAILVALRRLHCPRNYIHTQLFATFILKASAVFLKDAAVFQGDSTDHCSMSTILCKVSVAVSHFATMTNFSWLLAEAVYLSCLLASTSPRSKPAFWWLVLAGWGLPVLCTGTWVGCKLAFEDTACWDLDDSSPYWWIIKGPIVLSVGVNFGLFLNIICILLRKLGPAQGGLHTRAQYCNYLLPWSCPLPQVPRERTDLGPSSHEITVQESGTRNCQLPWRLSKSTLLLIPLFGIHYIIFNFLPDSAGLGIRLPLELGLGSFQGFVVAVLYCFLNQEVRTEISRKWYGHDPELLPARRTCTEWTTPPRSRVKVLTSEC

As a reminder, the Kd is the free concentration of one partner at which half of the binding sites on the other are occupied at equilibrium, for simple one-to-one binding. High values mean lower affinity, low ones higher affinity. As for “GHRH antagonist JV-1-42 (radioiodinated) (peptide)”, the Bmax (fmol/mg protein) was determined as 51.3 and the Kd was determined as 0.86 nM.
